Data as given in patent publication US11851498B2, “Anti-CD276 antibodies (B7H3)” (THE UNITED STATES OF AMERICA, as represented by THE …, priority 2014, dated 2023).
Entries after “also recorded” stand apart in the source; their conditions may differ. One block for each molecule: values may come before it. Non-standard residues stand in square brackets, D forms with d. Residues, ends and D or L forms follow the SMILES beside them. *: point of attachment. Dolaproine = CO[C@@H]([C@@H]1CCCN1)[C@@H](C)C(=O)O; Dil = CC[C@H](C)[C@H](NC)[C@@H](CC(=O)O)OC; X1 = C[C@@H](N*)[C@@H](O)c1ccccc1; NMeV = CN[C@H](C(=O)O)C(C)C

How the values were obtained:
[1] = tested on: HEK 293 cells (293); assay: Cell viability of untransduced HEK 293 cells; conditions: 293 cells (low CD276); various concentrations (nM); FIG. 7
Experimental: (§1) HEK 293 cells (293) or HEK 293 cells transduced with CD276 (293/CD276) were treated with MMAE alone, m8524 (m276) (SEQ ID NOs: 26 and 27) antibody alone, m825 (irrelevant control antibody)-ADC, or m8524-ADC. The drug of the ADCs was MMAE.

[2] = tested on: 293/CD276 cells; assay: Cell viability of HEK 293 cells transduced with CD276; conditions: FIG. 7
Experimental: as §1

[3] = target: T1, human CD276 expressed on the surface of HEK 293 cells (293/CD276) (Homo sapiens, UniProt Q5ZPR3); assay: Flow cytometry binding to HEK293 cells transduced with human CD276; assay type: cell-based; conditions: FITC-labeled IgG1; FIG. 5
T1 construct: expressed in transfected cells; host or cells: HEK293 cells
T1 sequence (Q5ZPR3 29-534): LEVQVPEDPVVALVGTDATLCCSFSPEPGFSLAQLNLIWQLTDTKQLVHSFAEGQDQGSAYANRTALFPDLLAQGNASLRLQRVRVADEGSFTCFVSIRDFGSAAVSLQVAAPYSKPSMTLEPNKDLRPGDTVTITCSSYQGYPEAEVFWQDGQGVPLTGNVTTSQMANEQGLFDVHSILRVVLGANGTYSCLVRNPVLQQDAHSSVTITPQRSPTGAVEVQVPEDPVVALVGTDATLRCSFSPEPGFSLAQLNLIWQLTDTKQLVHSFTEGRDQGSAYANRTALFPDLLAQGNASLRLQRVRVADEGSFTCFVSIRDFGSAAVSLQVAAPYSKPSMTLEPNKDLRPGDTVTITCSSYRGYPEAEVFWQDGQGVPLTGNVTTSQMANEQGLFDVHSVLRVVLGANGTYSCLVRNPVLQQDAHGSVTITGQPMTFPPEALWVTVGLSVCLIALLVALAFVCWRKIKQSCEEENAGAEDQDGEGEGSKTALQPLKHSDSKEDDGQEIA
Experimental: HEK293 cells were untransduced or transduced to express human CD276. The cells were cultured with FITC-labeled human anti-CD276 antibody m8524 IgG1 (SEQ ID NOs: 26 and 27). The binding of the FITC-labeled human anti-CD276 antibody m8524 IgG1 to human CD276 expressed on the cell surface was measured by flow cytometry.

[4] = tested on: Pan02 pancreatic adenocarcinoma tumors, tumor vasculature and normal tissues; assay: In vivo localization of FITC-labeled antibody after IP injection into Pan02 tumor-bearing mice (immunofluorescence); conditions: FITC-labeled IgG1 IP; for localization/staining in tumor (tumor cells and tumor vasculature): co-stain anti-CD31/anti-Meca32
Experimental: CD276 KO mice and CD276 WT mice each bearing Pan02 pancreatic adenocarcinoma tumors were injected (IP) with FITC-labeled 8524 IgG1 (SEQ ID NOs: 26 and 27) and anti-CD31/anti-Meca32. Anti-Meca32 is a monoclonal antibody with specificity for mouse endothelium.
(§2) CD276-positive, Pan02 pancreatic adenocarcinoma tumor-bearing, CD276 KO mice were injected (IP) with FITC-labeled 8524 IgG1 (SEQ ID NOs: 26 and 27) (green staining) and anti-CD31/anti-Meca32 (red staining). CD31/Meca32 positive vessels were stained red. Human tumor cells were stained green. Separate photographic images of the green and red staining were taken, and the images of the red and green staining were merged to provide a third image wherein co-localization of red and green staining provided a yellow signal.
as §2, with “WT” for “KO”
CD276 KO mice and CD276 WT mice each bearing Pan02 pancreatic adenocarcinoma tumors were injected (IP) with FITC-labeled 8524 IgG1 (SEQ ID NOs: 26 and 27) and anti-CD31/anti-Meca32. CD31/Meca32 positive vessels in the normal liver of both CD276 KO and CD276 WT mice and in the tumor vasculature of CD276 WT mice were stained red. Human tumor cells and tumor vasculature were stained green in the CD276 WT mice. Separate photographic images of the green and red staining in the tumor of CD276 WT mice were taken, and the images of the red and green staining were merged to provide a third image wherein co-localization of red and green staining provided a yellow signal. […] The yellow signal indicated the co-localization of the CD31/Meca32 staining (red) with the CD276 staining (green).
CD276 WT mice bearing Pan02 pancreatic adenocarcinoma tumors were injected (IP) with FITC-labeled 8524 IgG1 (SEQ ID NOs: 26 and 27) and anti-CD31/anti-Meca32. CD31/Meca32 positive vessels in normal tissues, including the brain, heart, intestines, liver, muscle, spleen, and stomach of the CD276 WT mice were stained red. Pan02 tumors served as a positive control for the staining of all normal tissues. CD31/Meca32 positive vessels in the tumor vasculature of CD276 WT mice were also stained red. Human tumor cells and tumor vasculature were stained green in the CD276 WT mice. […]

[5] = tested on: MC38 (colon cancer) tumor / normal liver margin; assay: Co-immunofluorescence post-staining of intrahepatic MC38 tumors at the normal liver/tumor margin; conditions: MC38 tumor-bearing WT mice; samples post-stained with FITC-labeled IgG1; FIG. 6B
Excerpt: Samples of the normal liver/tumor margin of MC38 (colon cancer)-tumor bearing, WT mice were post-stained with FITC-labeled human anti-CD276 antibody (m8524 IgG1) (SEQ ID NOs: 26 and 27) (FIG. 6B) or laminin (FIG. 6A). Photographic images were taken.

[6] = tested on: human CD276-AP fusion protein; assay: ELISA binding assay, human CD276; conditions: scFv-Fc fusion protein in culture medium, serially diluted; CD276-AP coated at 2 μg/ml; FIG. 1A
Experimental: (§3) The scFv-encoding inserts of the unique clones were digested with SfiI and ligated into modified pSecTag bearing the same set of SfiI sites and Fc-Avi tag for soluble expression. These constructs were transfected into 293T cells for expression following the manufacturer's protocol. After 72 hr of growth, the scFv-Fc fusion proteins in the culture medium were used for the ELISA binding assay.
(§4) 50 μl of the diluted human (FIG. 1A) or mouse (FIG. 1B) CD276-AP fusion protein in PBS at 2 μg/ml was coated in a 96-well plate at 4° C. overnight. Transiently expressed scFv-Fc fusion protein in the culture medium was serially diluted and added into the target protein coated wells. After washing, a 1:3000 diluted horseradish peroxidase (HRP) conjugated goat anti-human IgG antibody was added for 1 hr at RT. After washing, 3, 3, 5, 5′-Tetramethylbenzidine (TMB) substrate was added, and the optical density (O.D.) was read at 450 nm.

[7] = tested on: mouse CD276-AP fusion protein; assay: ELISA binding assay, mouse CD276; conditions: scFv-Fc fusion protein in culture medium, serially diluted; CD276-AP coated at 2 μg/ml; FIG. 1B
mouse CD276-AP fusion protein, sequence (Q8VE98 29-248 limits assumed): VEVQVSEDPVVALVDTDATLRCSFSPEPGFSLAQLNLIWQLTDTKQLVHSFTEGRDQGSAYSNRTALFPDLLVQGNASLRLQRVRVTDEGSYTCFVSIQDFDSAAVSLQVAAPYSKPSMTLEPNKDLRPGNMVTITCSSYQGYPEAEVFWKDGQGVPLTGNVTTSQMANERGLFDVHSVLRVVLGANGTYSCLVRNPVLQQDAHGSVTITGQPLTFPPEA
Experimental: as §3, §4

[8] = CD276 WT mice bearing Pan02 tumors

Molecule: CC[C@H](C)[C@@H]([C@@H](CC(=O)N1CCC[C@H]1[C@H](OC)[C@@H](C)C(=O)N[C@H](C)[C@@H](O)c1ccccc1)OC)N(C)C(=O)[C@@H](NC(=O)[C@@H](NC)C(C)C)C(C)C [MMAE, monomethyl auristatin E, reference compound] (H-[NMeV]V[Dil][Dolaproine]-X1)
cytotoxicity (cell viability, % of control) [1]: cytotoxic to all cells
cytotoxicity (cell viability, % of control) ([2]; 293/CD276 cells (high CD276), various concentrations (nM)): cytotoxic to all cells
selectivity for CD276-expressing cells ([2]; 293/CD276 versus 293 cells): no selectivity

B1: m8524 IgG1: human anti-CD276 antibody m8524 in IgG1 format (SEQ ID NOs: 26 and 27), FITC-labeled (antibody, V domains shown)
VH: QVQLQQSGAEVKKPGSSVKVSCKASGGTFSSYAISWVRQAPGQGLEWMGGIIPILGIANYAQKFQGRVTITADESTSTAYMELSSLRSEDTAVYYCARGGSGSYHMDVWGKGTTVTVSS
VL: EIVLTQSPATLSLSPGERATLSCRASQSVSSYLAWYQQKPGQAPRLLIYDASNRATGIPARFSGSGSGTDFTLTISSLEPEDFAVYYCQQRSNWPPRITFGQGTRLEIK
modifications: FITC label
binding to CD276-transfected 293 cells as compared to non-transfected parent 293 cells (flow cytometry) [3]: increased binding
staining of normal liver ([4]; CD276 WT and CD276 KO mice bearing Pan02 tumors): not the normal liver
staining of normal tissues (brain, heart, intestines, liver, muscle, spleen, stomach) [4, 8]: did not stain any of the normal tissues
localization/staining in tumor (tumor cells and tumor vasculature) [4, 8]: co-localization; also recorded: localized to both human tumor cells and tumor vasculature; also recorded: stained tumor cells and tumor vasculature
localization/staining in tumor (tumor cells and tumor vasculature) ([4]; CD276 WT mice bearing Pan02 tumors, listed as 8524 IgG1): stained tumor cells (green) and tumor vasculature
staining at the normal liver/tumor margin [5]: stained tumor cells but not normal tissue

Other lines, results leading:

binding to human CD276 (OD at 450 nm, ELISA) [6]: bound
binding to mouse CD276 (OD at 450 nm, ELISA) [7]: bound
B2: m852: anti-CD276 antibody clone, heavy chain comprising SEQ ID NO: 7 and light chain comprising SEQ ID NO: 8 (antibody, V domains shown)
VH: QVQLQQSGAEVKKPGSSVKVSCKASGGTFSSYAISWVRQAPGQGLEWMGGIIPILGIANYAQKFQGRVTITADESTSTAYMELSSLRSEDTAVYYCARGRRSGSYYMGYWGQGTLVTVSS
VL: EIVLTQSPATLSLSPGERATLSCRASQSVSSNLAWYQQKPGQAPRLLIYDTSTRATGIPARFSGSGSGTEFTLTISSLQSEDFAVYYCQQYNNWPPAYTFGQGTKLEIK

binding to human CD276 (OD at 450 nm, ELISA) [6]: bound
binding to mouse CD276 (OD at 450 nm, ELISA) [7]: bound
B3: m857: anti-CD276 antibody clone, heavy chain comprising SEQ ID NO: 17 and light chain comprising SEQ ID NO: 18 (antibody, V domains shown)
VH: QVQLQQSGAEVKKPGSSVKVSCKASGGTFSSYAISWVRQAPGQGLEWMGGIIPILGIANYAQKFQGRVTITADESTSTAYMELSSLRSEDTAVYYCATGGSGSYAFDIWGQGTMVTVSS
VL: EIVLTQSPATLSLSPGERATLSCRASQSVSSYLAWYQQKPGQAPRLLIYDASNRATGIPARFSGSGSGTDFTLTISSLEPEDFAVYYCQQRSNWPPSYTFGQGTKLEIK
